Where “and” joins values, the source holds several entries; their conditions need not be identical. Equal entries are not always repeated. Bridge positions count the residues as written; N and C are the ends. Ends that are not written are not given here. * marks the point of attachment. Butanoyl(4-pyren-1-yl) = O=C(CCCc1ccc2ccc3cccc4ccc1c2c34)*; Tpa = triphenylacetyl, O=C(C(c1ccccc1)(c1ccccc1)c1ccccc1)*; Acetyl(1-pyrenyl) = O=C(Cc1ccc2ccc3cccc4ccc1c2c34)*; Phenylacetyl(4-Ph) = O=C(Cc1ccc(-c2ccccc2)cc1)*; Benzoyl(4-heptyl) = CCCCCCCc1ccc(C(=O)*)cc1; Acetyl(1-naphthyl) = O=C(Cc1cccc2ccccc12)*; Diphenylacetyl = O=C(C(c1ccccc1)c1ccccc1)*; cPrCO(2,2,3,3-Me4) = CC1(C)C(C(=O)*)C1(C)C; Ibuprofenoyl = CC(C)Cc1ccc(C(C)C(=O)*)cc1; Hexanoyl(6-Ph) = O=C(CCCCCc1ccccc1)*; PhAc = O=C(Cc1ccccc1)*

The first experiment has as its target human α4β7 integrin (human) (UniProt P13612). In words: inhibition of HUT 78 cell adhesion to murine MAdCAM-1/mCk at 500 µM.
Regarding PhAc-LDTSL (not fully specified (C-terminus); printed as Pha-Leu-Asp-Thr-Ser-Leu) [Pha-Leu-Asp-Thr-Ser-Leu], the % Adhesion Inhibition was determined as 38%.

With {Benzoyl(4-heptyl)}-LDTSL (not fully specified (C-terminus); printed as Hbz-Leu-Asp-Thr-Ser-Leu) [Hbz-Leu-Asp-Thr-Ser-Leu], the % Adhesion Inhibition was determined as 51%.

{Acetyl(1-naphthyl)}-LDTSL (not fully specified (C-terminus); printed as Npa-Leu-Asp-Thr-Ser-Leu) [Npa-Leu-Asp-Thr-Ser-Leu] returned a % Adhesion Inhibition of 39%.

Regarding {cPrCO(2,2,3,3-Me4)}-LDTSL [Tpc-Leu-Asp-Thr-Ser-Leu], the % Adhesion Inhibition stood at 39%.

Turning to {Hexanoyl(6-Ph)}-LDTSL (not fully specified (C-terminus); printed as Phx-Leu-Asp-Thr-Ser-Leu) [Phx-Leu-Asp-Thr-Ser-Leu], the % Adhesion Inhibition amounted to 32%.

As to Ac-LDTSL (not fully specified (C-terminus); printed as Ac-Leu-Asp-Thr-Ser-Leu) [Ac-Leu-Asp-Thr-Ser-Leu (00389-1A)], the % Adhesion Inhibition was found to be 29%.

With Ac-LDTSL-NH2 [Ac-Leu-Asp-Thr-Ser-Leu], the % Adhesion Inhibition was 50% and 71%.

{Phenylacetyl(4-Ph)}-LDTSL (not fully specified (C-terminus); printed as Bipa-Leu-Asp-Thr-Ser-Leu) [Bipa-Leu-Asp-Thr-Ser-Leu] gave a % Adhesion Inhibition of 54%.

Ibuprofenoyl-LDTSL (not fully specified (C-terminus); printed as Impa-Leu-Asp-Thr-Ser-Leu) [Impa-Leu-Asp-Thr-Ser-Leu] showed a % Adhesion Inhibition of 44%.

Another experiment has the same target. In words: inhibition of HUT 78 cell adhesion to murine MAdCAM-1/mCk.
Regarding PhAc-LDTSL (not fully specified (C-terminus); printed as Pha-Leu-Asp-Thr-Ser-Leu) [Pha-Leu-Asp-Thr-Ser-Leu], the IC50 is 2130 µM. In other words, the millimolar range.

Take {Benzoyl(4-heptyl)}-LDTSL (not fully specified (C-terminus); printed as Hbz-Leu-Asp-Thr-Ser-Leu) [Hbz-Leu-Asp-Thr-Ser-Leu]: the IC50 amounted to 401 µM.

For the molecule {Acetyl(1-naphthyl)}-LDTSL (not fully specified (C-terminus); printed as Npa-Leu-Asp-Thr-Ser-Leu) [Npa-Leu-Asp-Thr-Ser-Leu], the IC50 was determined as 548 µM.

{cPrCO(2,2,3,3-Me4)}-LDTSL [Tpc-Leu-Asp-Thr-Ser-Leu] yielded an IC50 of 121 µM.

For {Hexanoyl(6-Ph)}-LDTSL (not fully specified (C-terminus); printed as Phx-Leu-Asp-Thr-Ser-Leu) [Phx-Leu-Asp-Thr-Ser-Leu], the half-maximal inhibitory concentration (IC50) came out at 818 µM.

Ac-LDTSL (not fully specified (C-terminus); printed as Ac-Leu-Asp-Thr-Ser-Leu) [Ac-Leu-Asp-Thr-Ser-Leu (00389-1A)] gave an IC50 of 205 µM. Compared with the last molecule, the IC50 is about 4-fold lower.

For the molecule {Butanoyl(4-pyren-1-yl)}-LDTSL (not fully specified (C-terminus); printed as Pba-Leu-Asp-Thr-Ser-Leu) [Pba-Leu-Asp-Thr-Ser-Leu (00386-1A)], the half-maximal inhibitory concentration (IC50) is 2.8 µM.

Molecule Tpa-LDTSL [Tpa-Leu-Asp-Thr-Ser-Leu] showed an IC50 of 0.3 µM.

For the molecule Diphenylacetyl-LDTSL (not fully specified (C-terminus); printed as Dpa-Leu-Asp-Thr-Ser-Leu) [Dpa-Leu-Asp-Thr-Ser-Leu], the IC50 turned out to be 11 µM.

The molecule {Acetyl(1-pyrenyl)}-LDTSL (not fully specified (C-terminus); printed as Paa-Leu-Asp-Thr-Ser-Leu) [Paa-Leu-Asp-Thr-Ser-Leu] returned an IC50 of 0.5 µM.

Regarding Ac-LDTSL-NH2 [Ac-Leu-Asp-Thr-Ser-Leu], the IC50 was 530 µM and 278 µM.

Consider {Phenylacetyl(4-Ph)}-LDTSL (not fully specified (C-terminus); printed as Bipa-Leu-Asp-Thr-Ser-Leu) [Bipa-Leu-Asp-Thr-Ser-Leu], for which the IC50 was 485 µM.

With Ibuprofenoyl-LDTSL (not fully specified (C-terminus); printed as Impa-Leu-Asp-Thr-Ser-Leu) [Impa-Leu-Asp-Thr-Ser-Leu], the IC50 worked out at 1140 µM.

A further experiment has as its target human α4β7 integrin (human), P13612. The experiment is described as above.
In the case of Ac-LDTSF (not fully specified (C-terminus); printed as Ac-Leu-Asp-Thr-Ser-Phe) [Ac-Leu-Asp-Thr-Ser-Phe], the half-inhibitory concentration (IC50) stood at 144 µM.

Ac-LFTSL (not fully specified (C-terminus); printed as Ac-Leu-Phe-Thr-Ser-Leu) [Ac-Leu-Phe-Thr-Ser-Leu] displayed an IC50 of 300 µM.

On to Ac-RGLDT (not fully specified (C-terminus); printed as Ac-Arg-Gly-Leu-Asp-Thr) [Ac-Arg-Gly-Leu-Asp-Thr], for which the IC50 was determined as 542 µM.

Take Ac-HWRGLDT (not fully specified (C-terminus); printed as Ac-His-Trp-Arg-Gly-Leu-Asp-Thr) [Ac-His-Trp-Arg-Gly-Leu-Asp-Thr]: the IC50 amounted to 584 µM. This IC50 and that of the molecule before are within 1.5-fold of each other.

The molecule Ac-RGLDTS (not fully specified (C-terminus); printed as Ac-Arg-Gly-Leu-Asp-Thr-Ser) [Ac-Arg-Gly-Leu-Asp-Thr-Ser] displayed a half-inhibitory concentration (IC50) of 1790 µM.

Regarding Ac-LDSSL (not fully specified (C-terminus); printed as Ac-Leu-Asp-Ser-Ser-Leu) [Ac-Leu-Asp-Ser-Ser-Leu], the IC50 stood at 611 µM.

Ac-WRGLDTS (not fully specified (C-terminus); printed as Ac-Trp-Arg-Gly-Leu-Asp-Thr-Ser) [Ac-Trp-Arg-Gly-Leu-Asp-Thr-Ser] came in with an IC50 of 862 µM.

Ac-LETSL (not fully specified (C-terminus); printed as Ac-Leu-Glu-Thr-Ser-Leu) [Ac-Leu-Glu-Thr-Ser-Leu] registered an IC50 of 60.7 µM.

In turn, LYTSL (modifications not checked) [Pba-Leu-Tyr-Thr-Ser-Leu] showed an IC50 of 30 µM.

PLDTSL (modifications not checked) [Pba-Pro-Leu-Asp-Thr-Ser-Leu] returned a half-inhibitory concentration (IC50) of 47 µM.

The molecule Ac-LDTTL (not fully specified (C-terminus); printed as Ac-Leu-Asp-Thr-Thr-Leu) [Ac-Leu-Asp-Thr-Thr-Leu] returned an IC50 of 101 µM. Compared with the last molecule, the IC50 is about 2.1-fold higher.

Take Ac-RGLDTSL (not fully specified (C-terminus); printed as Ac-Arg-Gly-Leu-Asp-Thr-Ser-Leu) [Ac-Arg-Gly-Leu-Asp-Thr-Ser-Leu]: the IC50 is 1580 µM.

As for Ac-WRGLDT (not fully specified (C-terminus); printed as Ac-Trp-Arg-Gly-Leu-Asp-Thr) [Ac-Trp-Arg-Gly-Leu-Asp-Thr], the IC50 is 725 µM.

Regarding Ac-LDASL (not fully specified (C-terminus); printed as Ac-Leu-Asp-Ala-Ser-Leu) [Ac-Leu-Asp-Ala-Ser-Leu], the IC50 is 1000 µM.

With Ac-GLDTSL (not fully specified (C-terminus); printed as Ac-Gly-Leu-Asp-Thr-Ser-Leu) [Ac-Gly-Leu-Asp-Thr-Ser-Leu], the IC50 amounted to 339 µM.

Take LATSL (modifications not checked) [Pba-Leu-Ala-Thr-Ser-Leu]: the IC50 was found to be 28 µM.

Ac-GLDTS (not fully specified (C-terminus); printed as Ac-Gly-Leu-Asp-Thr-Ser) [Ac-Gly-Leu-Asp-Thr-Ser] registered a concentration for half-maximal inhibition (IC50) of 745 µM.

On to Ac-LDVSL (not fully specified (C-terminus); printed as Ac-Leu-Asp-Val-Ser-Leu) [Ac-Leu-Asp-Val-Ser-Leu], for which the IC50 was 71 µM. Against the preceding molecule, the IC50 is about 10-fold lower.

Ac-CLDTSLC (disulfide 1-7) [Ac-Cys*-Leu-Asp-Thr-Ser-Leu-Cys*] yielded an IC50 of 102 µM.

The next experiment shares this target. In words: inhibition of RPMI 8866 cell adhesion to huMAdCAM-1-Ig.
As for LDTSL (modifications not checked) [R1-Leu-Asp-Thr-Ser-Leu, L# 1491 (Table 4)], the concentration for half-maximal inhibition (IC50) worked out at 3.4 µM. This lies in the single-digit micromolar range.

Another experiment shares this target. The experiment in a line: inhibition of HUT 78 cell adhesion to murine MAdCAM-1/mCk at 500 µM.
In turn, Ac-LDTSF (not fully specified (C-terminus); printed as Ac-Leu-Asp-Thr-Ser-Phe) [Ac-Leu-Asp-Thr-Ser-Phe] had a % Adhesion Inhibition of 86%.

Molecule Ac-LFTSL (not fully specified (C-terminus); printed as Ac-Leu-Phe-Thr-Ser-Leu) [Ac-Leu-Phe-Thr-Ser-Leu] gave a % Adhesion Inhibition of 29%.

On to Ac-RGLDT (not fully specified (C-terminus); printed as Ac-Arg-Gly-Leu-Asp-Thr) [Ac-Arg-Gly-Leu-Asp-Thr], for which the % Adhesion Inhibition came to 48%.

Ac-HWRGLDT (not fully specified (C-terminus); printed as Ac-His-Trp-Arg-Gly-Leu-Asp-Thr) [Ac-His-Trp-Arg-Gly-Leu-Asp-Thr] returned a % Adhesion Inhibition of 49%.

Molecule Ac-RGLDTS (not fully specified (C-terminus); printed as Ac-Arg-Gly-Leu-Asp-Thr-Ser) [Ac-Arg-Gly-Leu-Asp-Thr-Ser] registered a % Adhesion Inhibition of 31%.

Take Ac-LDSSL (not fully specified (C-terminus); printed as Ac-Leu-Asp-Ser-Ser-Leu) [Ac-Leu-Asp-Ser-Ser-Leu]: the % Adhesion Inhibition turned out to be 38%.

Regarding Ac-WRGLDTS (not fully specified (C-terminus); printed as Ac-Trp-Arg-Gly-Leu-Asp-Thr-Ser) [Ac-Trp-Arg-Gly-Leu-Asp-Thr-Ser], the % Adhesion Inhibition is 44%.

The molecule Ac-LETSL (not fully specified (C-terminus); printed as Ac-Leu-Glu-Thr-Ser-Leu) [Ac-Leu-Glu-Thr-Ser-Leu] registered a % Adhesion Inhibition of 98%.

Turning to LYTSL (modifications not checked) [Pba-Leu-Tyr-Thr-Ser-Leu], the % Adhesion Inhibition was 100%.

Ac-LDTTL (not fully specified (C-terminus); printed as Ac-Leu-Asp-Thr-Thr-Leu) [Ac-Leu-Asp-Thr-Thr-Leu] showed a % Adhesion Inhibition of 98%.

With Ac-RGLDTSL (not fully specified (C-terminus); printed as Ac-Arg-Gly-Leu-Asp-Thr-Ser-Leu) [Ac-Arg-Gly-Leu-Asp-Thr-Ser-Leu], the % Adhesion Inhibition was 35%.

Turning to Ac-WRGLDT (not fully specified (C-terminus); printed as Ac-Trp-Arg-Gly-Leu-Asp-Thr) [Ac-Trp-Arg-Gly-Leu-Asp-Thr], the % Adhesion Inhibition is 46%.

Ac-LDASL (not fully specified (C-terminus); printed as Ac-Leu-Asp-Ala-Ser-Leu) [Ac-Leu-Asp-Ala-Ser-Leu]: the % Adhesion Inhibition is 47%.

Ac-GLDTSL (not fully specified (C-terminus); printed as Ac-Gly-Leu-Asp-Thr-Ser-Leu) [Ac-Gly-Leu-Asp-Thr-Ser-Leu] yielded a % Adhesion Inhibition of 58%.

For the molecule Ac-GLDTS (not fully specified (C-terminus); printed as Ac-Gly-Leu-Asp-Thr-Ser) [Ac-Gly-Leu-Asp-Thr-Ser], the % Adhesion Inhibition was 43%.

In a further experiment the target is human α4β7 integrin (human) (UniProt P13612). In words: inhibition of HUT 78 cell adhesion to murine MAdCAM-1/mCk at 50 µM.
Regarding {Butanoyl(4-pyren-1-yl)}-LDTSL (not fully specified (C-terminus); printed as Pba-Leu-Asp-Thr-Ser-Leu) [Pba-Leu-Asp-Thr-Ser-Leu (00386-1A)], the % Adhesion Inhibition turned out to be 88%.

A further experiment has as its target human α4β7 integrin (human), P13612. In words: inhibition of HUT 78 cell adhesion to murine MAdCAM-1/mCk at 250 µM.
Molecule LATSL (modifications not checked) [Pba-Leu-Ala-Thr-Ser-Leu] had a % Adhesion Inhibition of 100%.

In turn, Ac-CLDTSLC (disulfide 1-7) [Ac-Cys*-Leu-Asp-Thr-Ser-Leu-Cys*] returned a % Adhesion Inhibition of 51%.

By IC50 is commonly meant the concentration that gives 50% inhibition. A low value points to greater potency.

For the origin of these results see patent US20020103111A1, “Inhibitors of MAdCAM-1-mediated interactions and methods of use therefor” (Millennium Pharmaceuticals, Inc., priority 1996, published 2002).
